In patent EP4813396A2 (Amphivena Therapeutics, Inc., dated 2026):
Changes are numbered by the printed parent chain.

B1: CD33/CD3 tandem diabody 08 (bispecific antibody)
chain: QSVLTQPPSASGTPGQRVTISCSGSRSNIGSNTVNWYQQLPGTAPKLLIYGNNQRPSGVPDRFSGSKSGSSASLAISGLQSEDEADYYCATWDDSLIGWVFGGGTKLTVLGGSGGSEVQLVESGGGLVQPGGSLRLSCAASGFTFSTYAMNWVRQAPGKGLEWVGRIRSKYNNYATYYADSVKDRFTISRDDSKNSLYLQMNSLKTEDTAVYYCARHGNFGNSYVSYFAYWGQGTLVTVSSGGSGGSDIQMTQSPSSLSASVGDRVTITCRSSTGAVTTSNYANWVQQKPGKAPKALIGGTNKRAPGVPSRFSGSLIGDKATLTISSLQPEDFATYYCALWYSNLWVFGQGTKVEIKGGSGGSQVQLVQSGAEVKKPGASVKVSCKASGYTFTSYDINWVRQAPGQGLEWMGWMNPNSGNTGFAQKFQGRVTMTRDTSTSTVYMELSSLRSEDTAVYYCARDRANTDFSYGMDVWGQGTLVTVSSAAAGSHHHHHH
notes: Non-covalent homodimer; domain order 3 VL(CD33)-L1-VH(CD3)-L2-VL(CD3)-L3-VH(CD33); also called TandAb 08; tandem diabody 8
B2: CD33/CD3 tandem diabody 10 (bispecific antibody)
chain: DIQMTQSPSSLSASVGDRVTITCRSSTGAVTTSNYANWVQQKPGKAPKGLIGGTNKRAPGVPSRFSGSLIGDKATLTISSLQPEDFATYYCALWYSNLWVFGQGTKVEIKGGSGGSQVQLVQSGAEVKKPGASVKVSCKASGYTFTSYDINWVRQAPGQGLEWMGWMNPNSGNTGFAQKFQGRVTMTRDTSTSTVYMELSSLRSEDTAVYYCARDRANTDYSFGMDVWGQGTLVTVSSGGSGQSVLTQPPSASGTPGQRVTISCSGSRSNIGSNTVNWYQQLPGTAPKLLIYGNNQRPSGVPDRFSGSKSGTSASLAISGLQSEDEADYYCATWDDSLIGWVFGGGTKLTVLGGSGGSEVQLVESGGGLVQPGGSLRLSCAASGFTFSTYAMNWVRQAPGKGLEWVGRIRSKYNNYATYYADSVKDRFTISRDDSKNSLYLQMNSLKTEDTAVYYCARHGNFGNSYVSWFAYWGQGTLVTVSSAAAGSHHHHHH
notes: Non-covalent homodimer; domain order 1; also called TandAb 10
B3: CD33/CD3 tandem diabody 15 (bispecific antibody)
chain: B2 chain with G49A, W469Y
notes: Non-covalent homodimer; domain order 1; also called TandAb 15
B4: CD33/CD3 tandem diabody 01 (bispecific antibody)
chain: B2 chain with S63A, L69G, I70S, D72T, K73D, A74F, Y221F, F223Y, T312S
notes: Non-covalent homodimer; domain order 1 VL(CD3)-L1-VH(CD33)-L2-VL(CD33)-L3-VH(CD3); also called TandAb 01; tandem diabody 1
B5: CD33/CD3 tandem diabody 02 (bispecific antibody)
chain: B2 chain with S63A, L69G, I70S, D72T, K73D, A74F, N218V, S222Y, F223Y
notes: Non-covalent homodimer; domain order 1; also called TandAb 02; tandem diabody 2
B6: CD33/CD3 tandem diabody 09 (bispecific antibody)
chain: B2 chain with Y221F, F223Y, T312S
notes: Non-covalent homodimer; domain order 1; also called TandAb 09; tandem diabody 9
B7: CD33/CD3 tandem diabody 04 (bispecific antibody)
chain: B2 chain with S63A, L69G, I70S, D72T, K73D, A74F, F223L
notes: Non-covalent homodimer; domain order 1; also called TandAb 04; tandem diabody 4
B8: CD33/CD3 tandem diabody 03 (bispecific antibody)
chain: B2 chain with S63A, L69G, I70S, D72T, K73D, A74F
notes: Non-covalent homodimer; domain order 1; also called TandAb 03; tandem diabody 3
B9: CD33/CD3 tandem diabody 11 (bispecific antibody)
chain: B2 chain with F223L
notes: Non-covalent homodimer; domain order 1; also called TandAb 11
B10: CD33/CD3 tandem diabody 21 (bispecific antibody)
chain: DIQMTQSPSSLSASVGDRVTITCRSSTGAVTTSNYANWVQQKPGKAPKALIGGTNKRAPGVPSRFSGSLIGDKATLTISSLQPEDFATYYCALWYSNLWVFGQGTKVEIKGGSGGSQVQLVQSGAEVKKPGSSVKVSCKASGGTFSSYAISWVRQAPGQGLEWMGGIYPIFGSANYAQKFQGRVTITADESTSTAYMELSSLRSEDTAVYYCAREYYYDSSEWAFDIWGQGTLVTVSSGGSGQSVLTQPPSASGTPGQRVTISCSGSSSNIGSNIVNWYQQLPGTAPKLLIYSNNQRPSGVPDRFSGSKSGTSASLAISGLQSEDEADYYCAAWDDSLKGYVFGGGTKLTVLGGSGGSEVQLVESGGGLVQPGGSLRLSCAASGFTFSTYAMNWVRQAPGKGLEWVGRIRSKYNNYATYYADSVKDRFTISRDDSKNSLYLQMNSLKTEDTAVYYCARHGNFGNSYVSYFAYWGQGTLVTVSSAAAGSHHHHHH
notes: Non-covalent homodimer; domain order 1; also called TandAb 21
B11: CD33/CD3 tandem diabody 22 (bispecific antibody)
chain: B10 chain with A149G, Y168I, N175H, I275T, N277K, P298S, T312S, K339N
notes: Non-covalent homodimer; domain order 1; also called TandAb 22
B12: CD33/CD3 tandem diabody 20 (bispecific antibody)
chain: DIQMTQSPSSLSASVGDRVTITCRSSTGAVTTSNYANWVQQKPGKAPKGLIGGTNKRAPGVPSRFSGSLIGTDFTLTISSLQPEDFATYYCALWYSNLWVFGQGTKVEIKGGSGGSQVQLVQSGAEVKKPGASVKVSCKASGYTFTSYYMHWVRQAPGQGLEWMGIINPSGGSTSYAQKFQGRVTMTRDTSTSTVYMELSSLRSEDTAVYYCARDVVPAAIDYYGMDVWGQGTTVTVSSGGSGQSVLTQPPSASGTPGQRVTISCSGSSSNIGSNTVNWYQQLPGTAPKLLIYSDNQRPSGVPDRFSGSKSGSSASLAISGLQSDDEADYYCATWDDSLNGAVFGGGTKLTVLGGSGGSEVQLVESGGGLVQPGGSLRLSCAASGFTFSTYAMNWVRQAPGKGLEWVGRIRSKYNNYATYYADSVKDRFTISRDDSKNSLYLQMNSLKTEDTAVYYCARHGNFGNSYVSWFAYWGQGTLVTVSS
notes: Non-covalent homodimer; domain order 1; also called TandAb 20
B13: CD33/CD3 tandem diabody 18 (bispecific antibody)
chain: EVQLVESGGGLVQPGGSLRLSCAASGFTFSTYAMNWVRQAPGKGLEWVGRIRSKYNNYATYYADSVKDRFTISRDDSKNSLYLQMNSLKTEDTAVYYCARHGNFGNSYVSYFAYWGQGTLVTVSSGGSGGSQSVLTQPPSVSGAPGQRVTISCTGSSSNIGAGYDVHWYQQLPGTAPKLLIYGNSNRPSGVPDRFSGSKSGTSASLAITGLQAEDEADYYCQSYDSSLSDVVFGGGTKLTVLGGSGQVQLVQSGAEVKKPGESLKISCKGSGYSFTSYWIGWVRQMPGKGLEWMGIIYPGDSDTRYSPSFQGQVTISADKSISTAYLQWSSLKASDTAMYYCARHKRGSDAFDIWGQGTTVTVSSGGSGGSDIQMTQSPSSLSASVGDRVTITCRSSTGAVTTSNYANWVQQKPGKAPKALIGGTNKRAPGVPSRFSGSLIGDKATLTISSLQPEDFATYYCALWYSNLWVFGQGTKVEIKAAAGSHHHHHH
notes: Non-covalent homodimer; domain order 2 VH(CD3)-L1-VL(CD33)-L2-VH(CD33)-L3-VL(CD3); also called TandAb 18

Target: T1, human CD33 on cells (human, UniProt P20138 18-364)
T1 sequence (P20138 18-364): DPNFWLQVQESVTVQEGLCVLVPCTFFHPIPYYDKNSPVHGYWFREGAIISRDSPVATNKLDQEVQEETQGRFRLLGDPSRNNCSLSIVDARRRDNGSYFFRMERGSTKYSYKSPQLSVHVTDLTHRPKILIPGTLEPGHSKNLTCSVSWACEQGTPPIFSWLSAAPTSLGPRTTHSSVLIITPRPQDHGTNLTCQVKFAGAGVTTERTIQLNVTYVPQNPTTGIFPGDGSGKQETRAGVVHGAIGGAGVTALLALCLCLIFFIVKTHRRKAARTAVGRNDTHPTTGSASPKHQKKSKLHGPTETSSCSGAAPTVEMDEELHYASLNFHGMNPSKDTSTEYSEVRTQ
Assay: cell-based or functional assay

| Binder | EC50 on HL-60 [pM] (cytotoxicity) |
| --- | --- |
| B1 | 1.8 pM |
| B2 | 7 pM |
| B3 | 1.8 pM |
| B4 | 1.9 pM |
| B5 | 0.5 pM |
| B6 | 6.8 pM |
| B7 | 1.8 pM |
| B8 | 3.6 pM |
| B9 | 5.9 pM |
| B10 | 7.6 pM |
| B11 | 3.2 pM |
| B12 | 10 pM |
| B13 | 6.3 pM |

Target: T2, human CD3 on T cells (human, UniProt P07766 23-207)
T2 sequence (P07766 23-207): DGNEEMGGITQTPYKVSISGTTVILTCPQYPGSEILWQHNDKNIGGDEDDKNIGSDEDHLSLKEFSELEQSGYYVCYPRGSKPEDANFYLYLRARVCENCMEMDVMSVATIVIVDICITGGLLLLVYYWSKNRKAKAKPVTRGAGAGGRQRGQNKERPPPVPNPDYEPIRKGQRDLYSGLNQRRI
Assay: cell-based or functional assay

| Binder | CD25 Induction EC50 (pM) | CD69 Induction EC50 (pM) | T cell Proliferation in PBMC EC50 (pM) |
| --- | --- | --- | --- |
| B2 | 10 pM | 6 pM | 6 pM |
| B3 | 6 pM | 7 pM | 7 pM |
| B4 | 92 pM | 91 pM | 89 pM |
| B5 | 42 pM | 27 pM | 4 pM |
| B6 | 11 pM | 7 pM | 9 pM |
| B7 | 94 pM | 62 pM | 44 pM |
| B8 | 117 pM | 87 pM | 63 pM |
| B9 | 11 pM | 5 pM | 6 pM |
| B10 | – | 225 pM | 500 pM |
| B11 | 10 pM | 4 pM | 7 pM |
| B12 | 98 pM | 75 pM | 19 pM |

Target: T1, human CD33 on cells
Assay: flow cytometry, HL-60 cells

| Binder | Kd |
| --- | --- |
| B2 | 0.5 nM |
| B3 | 0.4 nM |
| B4 | 0.6 nM |
| B5 | 0.2 nM |
| B6 | 0.5 nM |
| B7 | 0.5 nM |
| B8 | 1.1 nM |
| B9 | 0.3 nM |
| B10 | 9.7 nM |
| B11 | 0.7 nM |
| B12 | 4.1 nM |

Target: T1, human CD33 on cells
Assay: flow cytometry, titration on KG-1 cells

| Binder | Kd |
| --- | --- |
| B1 | 0.5 nM |
| B2 | 1 nM |
| B3 | 0.3 nM |
| B4 | 0.9 nM |
| B5 | 0.3 nM |
| B6 | 0.3 nM |
| B7 | 0.5 nM |
| B8 | 1.8 nM |
| B9 | 0.5 nM |
| B10 | 25.1 nM |
| B11 | 2 nM |
| B12 | 7 nM |
| B13 | 16.3 nM |

Target: T1, human CD33 on cells
Assay: flow cytometry, titration on HL-60 cells

| Binder | Kd |
| --- | --- |
| B1 | 0.3 nM |
| B2 | 0.5 nM |
| B3 | 0.4 nM |
| B4 | 0.6 nM |
| B5 | 0.2 nM |
| B6 | 0.5 nM |
| B7 | 0.5 nM |
| B8 | 1.1 nM |
| B9 | 0.3 nM |
| B10 | 9.7 nM |
| B11 | 0.7 nM |
| B12 | 4.1 nM |
| B13 | 3.4 nM |

Target: T1, human CD33 on cells
Assay: flow cytometry, titration on U-937 cells

| Binder | Kd |
| --- | --- |
| B1 | 1.8 nM |
| B2 | 1.7 nM |
| B3 | 0.9 nM |
| B4 | 7.1 nM |
| B5 | 0.9 nM |
| B6 | 2.2 nM |
| B7 | 1.7 nM |
| B8 | 8.9 nM |
| B9 | 0.6 nM |
| B10 | 80.2 nM |
| B11 | 8.6 nM |
| B12 | 7.2 nM |
| B13 | 15.1 nM |

Target: T2, human CD3 on T cells
Assay: flow cytometry, human T-cells (as headed in Table 10)

| Binder | Kd |
| --- | --- |
| B2 | 1.9 nM |
| B3 | 1.3 nM |
| B4 | 94.2 nM |
| B5 | 69.8 nM |
| B6 | 2.4 nM |
| B7 | 79.3 nM |
| B8 | 81.9 nM |
| B9 | 2.6 nM |
| B10 | 2.1 nM |
| B11 | 4.1 nM |
| B12 | 144 nM |

Target: T2, human CD3 on T cells
Assay: flow cytometry, titration on human CD3+ T cells (Jurkat per paragraph 124/paragraph 125)

| Binder | Kd |
| --- | --- |
| B1 | 2.4 nM |
| B2 | 1.9 nM |
| B3 | 1.3 nM |
| B4 | 94.2 nM |
| B5 | 69.8 nM |
| B6 | 2.4 nM |
| B7 | 79.3 nM |
| B8 | 81.9 nM |
| B9 | 2.6 nM |
| B10 | 2.1 nM |
| B11 | 4.1 nM |
| B12 | 144 nM |
| B13 | 1.9 nM |

Target: cynomolgus CD33 on CHO cells (cynomolgus monkey)
Assay: flow cytometry; KD on CHO-cynomolgus CD33 cells divided by KD on CHO-human CD33 cells

| Binder | KD ratio cynoCD33/ huCD33 |
| --- | --- |
| B1 | 0.6 |
| B2 | 0.8 |
| B3 | 1.1 |
| B4 | 0.7 |
| B5 | 1.1 |
| B6 | 1 |
| B7 | 1.1 |
| B8 | 0.6 |
| B9 | 1.2 |
| B10 | 0.9 |
| B11 | 0.6 |
| B12 | 33.8 |
| B13 | 3.1 |
